The values that follow come from article PMC2704394 (2009).

B1: full length S. pombe Pik1, wild type [S. pombe] / purified Cdc4 protein [S. pombe] (parent complex)
chain 1: MPSSNSGNELLLRFFESAHFTSQLCVAYLSRYPNNIGIHHFLCEKLATFPYEEIEFFIPQLIHLVLNKDSESVALEEFIISQCEQNTQCALITFWYLQAHMVDLGLQPHSSCFKICKRLYNRIQILVFMSSSSLIQSQQKISENVTPALILSGIMLGGVCVPELLKKAGPIAIAQGRKAPRQDPDESDVDVLRRLSTEPRYSLDVLRSSLNNSIVEQHSEVSLRLKAPELTRTHSYQSSATLSIDEQRRVLRSNYFQQEIQFLFALQDISIRLIIVPRQARLSSLRAELALLNNNLPADVNIPLLRSYHKEVSHKIVRIDPKEATILNSAERVPYLIMVEVLSGELSFEPQSKKNKAKVQKIVSHKNQRKRWFDLTDVDPYTNLQDSTDNDISESESEGGDLSMSPLIKGLVPDTLSLSKSFSSFGNVSLQVPSSHRDTDVVLLSGRHSDSDGNGALKRSKIYASEITARMRAAATMLSQLDAEGSRRPKAETERIKNSIILDMQRLEEERLNEPSIYPVSVDISCAEDLRFGKETQKAERKGDRDDPSAATFQEDWYAKKERIRKSSPYGHYPNWDLVSVIVKTGADLRQETFACQLIYAFQRVWLECKEKVWVRRMKILVTGDNSGLIETITNAISVHSIKKNLTKQLREAELAQGKIAGKNVVTLKDYFIKQFGDPNSSRYRQAQTNFLQSLVAYSIISYLLQLKDRHNGNVLIDSEGHIIHIDFGFLLTNTPGNVGFESAPFKLTADYLEILDDRFDEYRSLMKAAFKSVRKNADQIILLVEVMQNNSTMPCFRAGENTSAQLLQRFQLQLGDKECDDFVDLLIQKANCSVWTRLYDLFQNITNGIY
chain 2: MSTDDSPYKQAFSLFDRHGTGRIPKTSIGDLLRACGQNPTLAEITEIESTLPAEVDMEQFLQVLNRPNGFDMPGDPEEFVKGFQVFDKDATGMIGVGELRYVLTSLGEKLSNEEMDELLKGVPVKDGMVNYHDFVQMILAN

In the experiment the parent is B1. The experiment is described as follows: sandwich ELISA; about 56 µg lysate protein (highest point of 2-fold serial dilution); cells grown in the absence of thiamine; Cdc4-coated wells; parent: 0.27; read off a plot.
Turning to chain 1 R838A, the response is about 0.027 Absorbance.
